Molecular target: CDK2 protein (purchased from Sino Biological Inc.) (UniProt P24941 1-298)
Test: SPR; CD147ICD immobilised on a CM5 chip; CDK2 injected at 30 µL/min; BSA signal subtracted
Conditions: both partners purified

B1: intracellular portion of CD147 (ICD, 230-269) (domain or fragment)
chain: EKRRKPEDVLDDDDAGSAPLKSSGQHQNDKGKNVRQRNSS
notes: CD147 (basigin), human, residues 230-269, intracellular portion; also called CD147’s intracellular domain; CD147’s intracellular segment; source: E. coli OrigamiB (DE3), purified (expressed and purified in the same way as for CD147)
  Kd: 16.7 µM
